Assay [1] concerns the target GluK2-ABD (Cys-light homomeric GluK2 receptor with a cysteine at site 479) (Rattus norvegicus) (UniProt P42260).
Assay [2] deals with GluK2-ATD (Cys-light homomeric GluK2 receptor with a cysteine at site 266) (Rattus norvegicus) (UniProt P42260).

As for Concanavalin A (natural protein), the smFRET efficiency between subunits at the ABD dimer interface (site 479) with 40 uM Con-A and 1 mM glutamate, Na+; major peak, shift of the population to higher FRET states against no Con-A (FRET efficiency) in assay [1] came out at 0.94. In addition, the smFRET efficiency across the dimer-dimer interface at the ATD (site 266) with 40 uM Con-A and 1 mM glutamate; primary population, against 0.83 reported earlier without Con-A (FRET efficiency) in assay [2] is 0.95.

The values are drawn from article PMC8401665.
